Reference: patent US20170296640A1 (IMMATICS BIOTECHNOLOGIES, published 2017)
One block for each binder: values may come before it.

Molecular target: T1, HLA-A*02:01 (peptide-receptive MHC class I monomer after UV cleavage of the UV-sensitive ligand) (human)
T1 construct: MHC monomers loaded by UV-ligand exchange and captured on streptavidin plates
Assay: UV ligand-exchange ELISA; exchange yield grade (+ >=10%, ++ >=20%, +++ >=50%, ++++ >=75%)
Text: Candidate peptides for T cell based therapies according to the present invention were further tested for their MHC binding capacity (affinity). The individual peptide-MHC complexes were produced by UV-ligand exchange, where a UV-sensitive peptide is cleaved upon UV-irradiation, and exchanged with the peptide of interest as analyzed. Only peptide candidates that can effectively bind and stabilize the peptide-receptive MHC molecules prevent dissociation of the MHC complexes. To determine the yield of the exchange reaction, an ELISA was performed based on the detection of the light chain (β2m) of stabilized MHC complexes. The assay was performed as generally described in Rodenko et al. (Rodenko et al., 2006).
96 well MAXISorp plates (NUNC) were coated over night with 2 ug/ml streptavidin in PBS at room temperature, washed 4× and blocked for 1 h at 37° C. in 2% BSA containing blocking buffer. Refolded HLA-A*02:01/MLA-001 monomers served as standards, covering the range of 15-500 ng/ml. Peptide-MHC monomers of the UV-exchange reaction were diluted 100 fold in blocking buffer. Samples were incubated for 1 h at 37° C., washed four times, incubated with 2 ug/ml HRP conjugated anti-β2m for 1 h at 37° C., washed again and detected with TMB solution that is stopped with […]. Absorption was measured at 450 nm. Candidate peptides that show a high exchange yield (preferably higher than 50%, most preferred higher than 75%) are generally preferred for a generation and production of antibodies or fragments thereof, and/or T cell receptors or fragments thereof, as they show sufficient avidity to the MHC molecules and prevent dissociation of the MHC complexes.

- peptide exchange yield: 20 to 50%
Binder: SLADSMPSL [SLADSMPSL (SEQ ID NO: 193)]

- peptide exchange yield: ≥ 75%
Binder: VLEAILPLV [VLEAILPLV (SEQ ID NO: 19)]

- peptide exchange yield: 20 to 50%
Binder: SLAPFDREPFTL [SLAPFDREPFTL (SEQ ID NO: 194)]

- peptide exchange yield: 20 to 50%
Binder: YLLTDNVVKL [YLLTDNVVKL (SEQ ID NO: 197)]

- peptide exchange yield: 50 to 75%
Binder: SLNSTTWKV [SLNSTTWKV (SEQ ID NO: 199)]

- peptide exchange yield: ≥ 75%
Binder: YLLDFEDRL [YLLDFEDRL (SEQ ID NO: 200)]

- peptide exchange yield: 50 to 75%
Binder: YLNISQVNV [YLNISQVNV (SEQ ID NO: 201)]

- peptide exchange yield: 20 to 50%
Binder: RLCDIVVNV [RLCDIVVNV (SEQ ID NO: 204)]

- peptide exchange yield: 50 to 75%
Binder: TLFYESPHL [TLFYESPHL (SEQ ID NO: 205)]

- peptide exchange yield: 20 to 50%
Binder: SAVSGQWEV [SAVSGQWEV (SEQ ID NO: 206)]

- peptide exchange yield: 20 to 50%
Binder: YINEDEYEV [YINEDEYEV (SEQ ID NO: 213)]

- peptide exchange yield: 20 to 50%
Binder: QLFEEEIEL [QLFEEEIEL (SEQ ID NO: 215)]

The next lines start with the binder.

Binder: GLIELVDQL [GLIELVDQL (SEQ ID NO: 190)]
- peptide exchange yield: 50 to 75%

Binder: GLSDISAQV [GLSDISAQV (SEQ ID NO: 191)]
- peptide exchange yield: 50 to 75%

Binder: GMAAEVPKV [GMAAEVPKV (SEQ ID NO: 192)]
- peptide exchange yield: 20 to 50%

Binder: ALIPDLNQI [ALIPDLNQI (SEQ ID NO: 195)]
- peptide exchange yield: 50 to 75%

Binder: GLLSAVSSV [GLLSAVSSV (SEQ ID NO: 198)]
- peptide exchange yield: 50 to 75%

Binder: ALAAGGYDV [ALAAGGYDV (SEQ ID NO: 202)]
- peptide exchange yield: 20 to 50%

Binder: ILDTIFHKV [ILDTIFHKV (SEQ ID NO: 203)]
- peptide exchange yield: 50 to 75%

Binder: LLSEETPSA [LLSEETPSA (SEQ ID NO: 2)]
- peptide exchange yield: 50 to 75%

Binder: ALFKEAYSL [ALFKEAYSL (SEQ ID NO: 21)]
- peptide exchange yield: 50 to 75%

Binder: GLVGLLEQA [GLVGLLEQA (SEQ ID NO: 207)]
- peptide exchange yield: ≥ 75%

Binder: FLAVSLPLL [FLAVSLPLL (SEQ ID NO: 208)]
- peptide exchange yield: 50 to 75%

Binder: FLLDTISGL [FLLDTISGL (SEQ ID NO: 209)]
- peptide exchange yield: 50 to 75%

Binder: FLAEQFEFL [FLAEQFEFL (SEQ ID NO: 210)]
- peptide exchange yield: 50 to 75%

Binder: FIDDLFAFV [FIDDLFAFV (SEQ ID NO: 211)]
- peptide exchange yield: 50 to 75%

Binder: FLIGQGAHV [FLIGQGAHV (SEQ ID NO: 212)]
- peptide exchange yield: 50 to 75%

Binder: FLFDGSMSL [FLFDGSMSL (SEQ ID NO: 214)]
- peptide exchange yield: 50 to 75%

Binder: ALKKHLTSV [ALKKHLTSV (SEQ ID NO: 22)]
- peptide exchange yield: 50 to 75%

Binder: KVVSNLPAI [KVVSNLPAI (SEQ ID NO: 216)]
- peptide exchange yield: 20 to 50%
